Measured values published in patent publication US20160280794A1 (published 2016).

Target: T1, CD20 (human, UniProt P11836 1-297)
T1 chain: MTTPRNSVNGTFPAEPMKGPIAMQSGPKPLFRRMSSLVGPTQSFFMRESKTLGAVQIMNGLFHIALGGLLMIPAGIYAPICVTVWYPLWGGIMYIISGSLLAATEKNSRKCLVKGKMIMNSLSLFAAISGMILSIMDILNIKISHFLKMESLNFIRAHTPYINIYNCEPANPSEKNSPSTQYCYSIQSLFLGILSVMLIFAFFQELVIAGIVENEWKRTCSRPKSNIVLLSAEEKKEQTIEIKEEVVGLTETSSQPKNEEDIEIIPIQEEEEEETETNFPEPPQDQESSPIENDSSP
Assay: FACS binding; Ramos cells

B1: Rituximab (antibody)
chain 1: not shown
chain 2: QIVLSQSPAILSASPGEKVTMTCRASSSVSYIHWFQQKPGSSPKPWIYATSNLASGVPVRFSGSGSGTSYSLTISRVEAEDAATYYCQQWTSNPPTFGGGTKLEIKRTVAAPSVFIFPPSDEQLKSGTASVVCLLNNFYPREAKVQWKVDNALQSGNSQESVTEQDSKDSTYSLSSTLTLSKADYEKHKVYACEVTHQGLSSPVTKSFNRGEC
- EC50: 1.13 mg/L
